In PMC12489045, “Non-coding RNA mediates the defense-associated reverse transcriptase (DRT) anti-phage oligomerization transition” (The EMBO Journal, 2025):

Key:
[1] = target: DRT9 reverse transcriptase (DRT9-RT protein), wild type, in complex with its ncRNA (Escherichia coli); experiment: cryo-EM structure; DRT9 RT-ncRNA complex (2 mg/ml) with 1 mM of each dNTP, 25 mM Tris-HCl pH 7.5, 150 mM NaCl, 5 mM MgCl2, room temperature 1 h; 3.46 Å
[2] = target: DRT9 reverse transcriptase (DRT9-RT protein), wild type, in complex with its ncRNA (Escherichia coli); experiment: cryo-EM structure; DRT9 RT-ncRNA complex without dNTPs, 2 mg/ml; 3.49 Å

stoichiometry N [1]: 6
fraction of particles that are hexamers (without dNTPs) [2]: 13%
stoichiometry N [2]: 4
Substance: DRT9 reverse transcriptase (DRT9-RT protein), wild type, in complex with its ncRNA (enzyme)
